Where a chain is given by its changes, count along the chain named.
B1: 6G03 (antibody, human IgG1, V domains shown)
VH: EVQLLESGGGLVQPGGSLRLSCAASGFTFGSYGMHWVRQAPGKGLEWVSGISWDSAIIDYAGSVKGRFTISRDNSKNTLYLQMNSLRAEDTAVYYCAKDEAAAGAFDIWGQGTLVTVSS
VL: QSVLTQPPSASGTPGQRVTISCTGSSSNIGAGYDVHWYQQLPGTAPKLLIYGNTDRPSGVPDRFSGSKSGTSASLAISGLRSEDEADYYCAAWDDSLSGPVVFGGGTKLTVLG
notes: hFcγRIIB mAb, human IgG1 (WT); Only VH/VL tied to the clone; also called Antibody clone: 6G03
B2: 5E12 (antibody, human IgG1, V domains shown)
VH: EVQLLESGGGLVQPGGSLRLSCAASGFTFSSYGMHWVRQAPGKGLEWVAVISYDGINKDYADSMKGRFTISRDNSKNTLYLQMNSLRAEDTAVYYCARERKDAFDIWGQGTLVTVSS
VL: QSVLTQPPSASGTPGQRVTISCTGSSSNIGAGYDVHWYQQLPGTAPKLLIYSNNQRPSGVPDRFSGSKSGTSASLAISGLRSEDEADYYCATWDDSLNGLVFGGGTKLTVLG
notes: hFcγRIIB mAb, human IgG1 (WT); Only VH/VL tied to the clone; also called Antibody clone: 5E12
B3: 6H08 (antibody, human IgG1, V domains shown)
VH: B2 VH with S30N, S31N, I56S, D59Y, M64V, R72K, R100Y
VL: QSVLTQPPSASGTPGQRVTISCTGSSSNIGSNTVNWYQQLPGTAPKLLIYDNNKRPSGVPDRFSGSKSGTSASLAISGLRSEDEADYYCQAWGTGIRVFGGGTKLTVLG
notes: hFcγRIIB mAb, human IgG1 (WT); Only VH/VL tied to the clone; also called Antibody clone: 6H08
B4: 6C11 (antibody, human IgG1, V domains shown)
VH: EVQLLESGGGLVQPGGSLRLSCAASGFTFDDYGMSWVRQAPGKGLEWVSAISGSGSSTYYADSVKGRFTISRDNSKNTLYLQMNSLRAEDTAVYYCAGGDIDYFDYWGQGTLVTVSS
VL: B2 VL with I29F, S52E, Q55K, T92A, L100P
notes: hFcγRIIB mAb, human IgG1 (WT); Only VH/VL tied to the clone; also called Antibody clone: 6C11
B5: 4B02 (antibody, human IgG1, V domains shown)
VH: B2 VH with S31N, Y32H, I56T, D59Y, M64V, K65R, R100T, K101W, I106V
VL: B3 VL with T23S, T33N, V34A, G93D, T94S, G95S, I96T, R97V
notes: hFcγRIIB mAb, human IgG1 (WT); Only VH/VL tied to the clone; also called Antibody clone: 4B02
B6: 6C12 (antibody, human IgG1, V domains shown)
VH: B2 VH with I56S, D59Y, M64V, K101R
VL: QSVLTQPPSASGTPGQRVTISCTGSSSNIGAGYDVHWYQQLPGTAPKLLIYSDNQRPSGVPDRFSGSKSGTSASLAISGLRSEDEADYYCATWDSDTPVFGGGTKLTVLG
notes: hFcγRIIB mAb, human IgG1 (WT); Only VH/VL tied to the clone; also called Antibody clone: 6C12

What follows are binders tested against T1, human FcγRIIA on cells (human, UniProt P12318 34-317) (assay: binding to FcγRIIA-transfected CHO-k1 cells).
T1 construct: whole, on cells; also called hFcγRIIA; FcγRIIA^+ve CHO
T1 sequence (looked up): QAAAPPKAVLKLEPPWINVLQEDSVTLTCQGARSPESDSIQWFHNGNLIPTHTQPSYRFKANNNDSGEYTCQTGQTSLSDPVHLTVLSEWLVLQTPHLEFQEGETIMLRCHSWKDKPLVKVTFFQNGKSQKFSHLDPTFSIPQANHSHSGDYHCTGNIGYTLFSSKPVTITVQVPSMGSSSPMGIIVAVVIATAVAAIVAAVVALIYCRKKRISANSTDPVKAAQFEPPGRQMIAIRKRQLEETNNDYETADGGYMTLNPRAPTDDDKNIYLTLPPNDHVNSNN

| Binder | binding result |
| --- | --- |
| B1 | no binding |
| B2 | no binding |
| B3 | no binding |
| B4 | no binding |
| B5 | no binding |
| B6 | no binding |

— US20170107293A1 (BIOINVENT INTERNATIONAL, published 2017)
